Measured values reported in PMC4829425.

Columns and labels:
[1] = target: VEGFR-2 EC(C482R)+TM(N762I-V769I-G770I)-(GGS)5-YFP or -mCherry (human) (UniProt P35968); assay: FRET or BRET; QI-FRET between YFP- and mCherry-tagged copies in single plasma membrane-derived vesicles of co-transfected CHO cells, no ligand; monomer-dimer equilibrium model, dimer to monomers; two-dimensional concentrations (receptors per square micron)
[2] = target: VEGFR-2 EC(C482R)+TM-(GGS)5-YFP or -mCherry (human) (UniProt P35968); assay: FRET or BRET; QI-FRET in CHO plasma membrane-derived vesicles with 3 ug/ml VEGF-A121, 1 hr at room temperature
[3] = target: VEGFR-2 EC(C482R)+TM-(GGS)5-YFP or -mCherry (human) (UniProt P35968); assay: FRET or BRET; QI-FRET between YFP- and mCherry-tagged copies in single plasma membrane-derived vesicles of co-transfected CHO cells, no ligand; monomer-dimer equilibrium model, dimer to monomers; two-dimensional concentrations (receptors per square micron)
[4] = target: VEGFR-2 EC+TM-(GGS)5-YFP or -mCherry (human) (UniProt P35968)
[5] = target: full length wild-type human VEGFR-2 (human) (UniProt P35968)
[6] = target: VEGFR-2 EC+TM-(GGS)5-YFP or -mCherry (human) (UniProt P35968); assay: FRET or BRET; QI-FRET in CHO plasma membrane-derived vesicles with 3 ug/ml VEGF-D, 1 hr at room temperature
[7] = target: VEGFR-2 EC+TM-(GGS)5-YFP or -mCherry (human) (UniProt P35968); assay: FRET or BRET; QI-FRET in CHO plasma membrane-derived vesicles with 3 ug/ml VEGF-A121, 1 hr at room temperature
[8] = target: VEGFR-2 EC+TM-(GGS)5-YFP or -mCherry (human) (UniProt P35968); assay: FRET or BRET; QI-FRET in CHO plasma membrane-derived vesicles with 3 ug/ml VEGF-E, 1 hr at room temperature
[9] = target: VEGFR-2 EC+TM-(GGS)5-YFP or -mCherry (human) (UniProt P35968); assay: FRET or BRET; QI-FRET in CHO plasma membrane-derived vesicles with 3 ug/ml VEGF-C, 1 hr at room temperature
[10] = target: VEGFR-2 EC+TM-(GGS)5-YFP or -mCherry (human) (UniProt P35968); assay: FRET or BRET; QI-FRET in CHO plasma membrane-derived vesicles with 3 ug/ml VEGF-A165b, 1 hr at room temperature
[11] = target: VEGFR-2 EC+TM-(GGS)5-YFP or -mCherry (human) (UniProt P35968); assay: FRET or BRET; QI-FRET in CHO plasma membrane-derived vesicles with 3 ug/ml VEGF-A165a, 1 hr at room temperature
[12] = target: VEGFR-2 EC+TM(E764I-T771I-F778I)-(GGS)5-YFP or -mCherry (human) (UniProt P35968); assay: FRET or BRET; QI-FRET in CHO plasma membrane-derived vesicles with 3 ug/ml VEGF-A121, 1 hr at room temperature
[13] = target: VEGFR-2 EC+TM(E764I-T771I-F778I)-(GGS)5-YFP or -mCherry (human) (UniProt P35968); assay: FRET or BRET; QI-FRET between YFP- and mCherry-tagged copies in single plasma membrane-derived vesicles of co-transfected CHO cells, no ligand; monomer-dimer equilibrium model, dimer to monomers; two-dimensional concentrations (receptors per square micron)
[14] = target: VEGFR-2 EC+TM(N762I-V769I-G770I)-(GGS)5-YFP or -mCherry (human) (UniProt P35968); assay: FRET or BRET; QI-FRET in CHO plasma membrane-derived vesicles with 3 ug/ml VEGF-A121, 1 hr at room temperature

VEGFR-2 EC(C482R)+TM(N762I-V769I-G770I)-(GGS)5-YFP or -mCherry (from UniProt P35968 20-1356) (domain or fragment)
percent dimer [1]: 100%

VEGFR-2 EC(C482R)+TM-(GGS)5-YFP or -mCherry (from UniProt P35968 20-1356) (domain or fragment)
percent dimer [2]: 100%
percent dimer [3]: 100%

human VEGF-D (from UniProt O43915 89-205) (ligand)
Intrinsic FRET of the EC+TM dimer (YFP/mCherry) with 3 ug/ml ligand; 0.61 without ligand [4]: 0.43
phosphorylation of full-length VEGFR-2 (Tyr 1175, Western blot) with 3 ug/ml ligand against no ligand [5]: < 10 fold

human VEGF-C (from UniProt P49767 112-227) (ligand)
Intrinsic FRET of the EC+TM dimer (YFP/mCherry) with 3 ug/ml ligand; 0.61 without ligand [4]: 0.45
phosphorylation of full-length VEGFR-2 (Tyr 1175, Western blot) with 3 ug/ml ligand against no ligand [5]: < 10 fold

VEGFR-2 EC+TM-(GGS)5-YFP or -mCherry (from UniProt P35968 20-1356) (domain or fragment)
percent dimer [6]: 100%
percent dimer [7]: 100%
percent dimer [8]: 100%
percent dimer [9]: 100%
percent dimer [10]: 100%
percent dimer [11]: 100%

VEGFR-2 EC+TM(E764I-T771I-F778I)-(GGS)5-YFP or -mCherry (from UniProt P35968 20-1356) (domain or fragment)
percent dimer [12]: 100%
percent dimer [13]: 100%

VEGFR-2 EC+TM(N762I-V769I-G770I)-(GGS)5-YFP or -mCherry (from UniProt P35968 20-1356) (domain or fragment)
percent dimer [14]: 100%

VEGF-E (ligand)
Intrinsic FRET of the EC+TM dimer (YFP/mCherry) with 3 ug/ml ligand; 0.61 without ligand [4]: 0.44
phosphorylation of full-length VEGFR-2 (Tyr 1175, Western blot) with 3 ug/ml ligand against no ligand [5]: < 10 fold
